One assay has as its target T1, human ROR1-Fc (CHO) (human).
T1 construct: ROR1 extracellular domain fused to human Fc; also called huROR1-Fc; hROR1-Fc
As to the kind of experiment: ELISA on coated human ROR1-hFc, one concentration (5 µg/mL). How it is done:
(§1) In brief, ELISA method as follows. Wells coated with 100ng of ROR1-hFc antigen and incubated, covered, at room temperature for 2 hr. Plates washed 3×400ul per well with PBST (PBS+0.05% Tween 20 (v/v)), then blocked with 4% skimmed milk powder (w/v) in PBST for 1 hour at 37° C. Plates washed as before plus additional wash in PBS alone. HisMyc-tagged binding proteins were diluted in 4% milk PBST and incubated overnight at 4° C. Plates washed 3× with PBST, 3× PBS and binding detected using appropriate secondary detection antibody in 4% milk PBST, room temperature 1 hour. Secondary antibodies used include: [0658] Anti-c-Myc, HRP (Invitrogen #R951-25) [0659] Mouse anti-polyHis, HRP (Sigma #A7058)
(An ELISA detects its analyte on a solid surface through an enzyme-linked reagent.)

The target in a further assay is T2, human ROR2-Fc (CHO) (human).
T2 construct: also called hROR2-hFc
Put plainly: ELISA; hROR2-hFc coated. As for the experimental part: as §1
The same ELISA procedure was employed as described above but with either mROR1-hFc or hROR2-hFc coated on the plates.

Positions count from the first letter of the chain named.

Data on four molecules can be found in patent US20250269051A1 (ALMAC DISCOVERY, published 2025).

T1 sequence (chain, as listed by the source limits assumed): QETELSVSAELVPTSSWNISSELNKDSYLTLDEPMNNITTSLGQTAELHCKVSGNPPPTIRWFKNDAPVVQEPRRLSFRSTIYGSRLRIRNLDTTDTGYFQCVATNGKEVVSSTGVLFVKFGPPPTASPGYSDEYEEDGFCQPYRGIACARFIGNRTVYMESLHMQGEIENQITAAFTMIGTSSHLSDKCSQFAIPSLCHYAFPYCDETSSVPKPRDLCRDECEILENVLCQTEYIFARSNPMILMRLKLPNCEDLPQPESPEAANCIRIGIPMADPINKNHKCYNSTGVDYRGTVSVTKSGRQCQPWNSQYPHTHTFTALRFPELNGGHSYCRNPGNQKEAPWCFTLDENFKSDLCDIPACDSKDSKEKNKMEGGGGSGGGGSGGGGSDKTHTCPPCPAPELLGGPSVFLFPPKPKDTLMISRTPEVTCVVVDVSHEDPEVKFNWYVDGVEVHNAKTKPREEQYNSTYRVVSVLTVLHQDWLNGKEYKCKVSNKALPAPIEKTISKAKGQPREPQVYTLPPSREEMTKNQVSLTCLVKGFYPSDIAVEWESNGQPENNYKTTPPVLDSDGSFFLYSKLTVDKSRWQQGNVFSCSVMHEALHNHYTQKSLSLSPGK
T2 sequence (chain, as listed by the source limits assumed): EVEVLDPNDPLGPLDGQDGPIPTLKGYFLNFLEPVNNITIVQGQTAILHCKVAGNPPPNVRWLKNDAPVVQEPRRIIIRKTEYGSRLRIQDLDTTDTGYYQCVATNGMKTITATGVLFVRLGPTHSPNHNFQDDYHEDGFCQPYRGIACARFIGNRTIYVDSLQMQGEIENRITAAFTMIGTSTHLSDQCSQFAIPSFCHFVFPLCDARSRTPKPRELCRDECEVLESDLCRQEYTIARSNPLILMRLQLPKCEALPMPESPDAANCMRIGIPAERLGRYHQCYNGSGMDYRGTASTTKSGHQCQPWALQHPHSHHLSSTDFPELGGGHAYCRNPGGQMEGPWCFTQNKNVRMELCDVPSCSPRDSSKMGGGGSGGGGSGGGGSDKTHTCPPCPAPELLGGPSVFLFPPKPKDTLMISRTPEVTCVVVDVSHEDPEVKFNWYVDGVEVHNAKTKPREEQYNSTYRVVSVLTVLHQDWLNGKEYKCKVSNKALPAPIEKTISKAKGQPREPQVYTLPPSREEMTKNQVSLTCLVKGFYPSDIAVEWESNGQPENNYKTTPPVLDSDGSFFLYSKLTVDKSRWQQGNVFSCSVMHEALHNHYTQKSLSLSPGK

B1: AA5.S (VNAR)
VNAR: TRVDQSPSSLSASVGDRVTITCVLTGTGYGLYSSTYWYRKNPGSSDEERIIIGGRYSESVNKGSKSFTLTISSLQPEDSATYYCRAREARHPWLRQWYDGAGTKVEIKQ
notes: P3A1 G1 loop variant from the selection on streptavidin beads; also called P3A1 G1 loop variant AA5.S
For the molecule B1, in the assay with human ROR1-Fc (CHO), the binding result is “binds”.

B2: NAC6.S (VNAR)
VNAR: B1 VNAR with G26D, G28R, G30A, S45T, I51S
notes: VNAR, P3A1 G1 loop variant; entry includes the HisMyc tag; also called P3A1 G1 NAC6.S; P3A1G1 NAC6.S
With B2, the binding result in the assay with human ROR2-Fc (CHO) is recorded as “no binding”.

B3: AE3.S (VNAR)
VNAR: B1 VNAR with G28R, I51S, G53S, S64T
notes: VNAR, P3A1 G1 loop variant; entry includes the HisMyc tag; also called P3A1 G1 AE3.S; P3A1G1 AE3.S
For B3, in the assay with human ROR2-Fc (CHO), the binding result was “no binding”.

B4: AC5.S (VNAR)
VNAR: B1 VNAR with G26D, G28S, D46N, E47K, I50M, I51S, G53S
notes: P3A1 G1 loop variant from the immunotube selection; also called P3A1 G1 loop variant AC5.S
In the case of B4, the binding result with human ROR1-Fc (CHO) is reported as “binds”.
